Assays:
Assay in all cases: fluorescence polarisation
Rb^P S474I = target: T1, Rb^P S474I (human, UniProt P06400 380-788, S474I)
T1 sequence: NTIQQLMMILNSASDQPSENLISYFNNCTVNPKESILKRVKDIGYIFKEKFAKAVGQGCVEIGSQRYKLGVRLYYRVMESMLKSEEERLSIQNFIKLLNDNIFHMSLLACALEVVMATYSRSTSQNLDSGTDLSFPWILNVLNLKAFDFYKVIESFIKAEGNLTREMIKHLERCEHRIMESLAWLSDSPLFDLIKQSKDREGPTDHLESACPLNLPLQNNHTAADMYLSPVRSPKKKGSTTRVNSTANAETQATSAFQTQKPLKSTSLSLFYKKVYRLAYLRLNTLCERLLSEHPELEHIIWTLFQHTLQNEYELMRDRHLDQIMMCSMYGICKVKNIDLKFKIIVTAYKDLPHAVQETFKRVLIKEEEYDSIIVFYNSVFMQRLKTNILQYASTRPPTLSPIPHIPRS

Rb^P E492Q = target: T2, Rb^P E492Q (human, UniProt P06400 380-788, E492Q)
T2 sequence: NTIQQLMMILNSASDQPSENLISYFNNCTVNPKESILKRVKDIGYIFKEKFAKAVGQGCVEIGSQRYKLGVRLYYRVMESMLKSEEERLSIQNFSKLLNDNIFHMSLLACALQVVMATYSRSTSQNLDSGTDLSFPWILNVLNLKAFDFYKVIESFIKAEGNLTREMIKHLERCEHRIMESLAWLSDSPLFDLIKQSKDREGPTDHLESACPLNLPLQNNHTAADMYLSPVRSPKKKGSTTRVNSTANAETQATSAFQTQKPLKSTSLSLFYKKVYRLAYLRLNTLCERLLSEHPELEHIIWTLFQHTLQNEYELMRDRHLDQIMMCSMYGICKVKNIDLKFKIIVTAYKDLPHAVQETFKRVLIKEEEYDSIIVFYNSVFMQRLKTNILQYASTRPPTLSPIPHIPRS

Rb^P S474R = target: T3, Rb^P S474R (human, UniProt P06400 380-788, S474R)
T3 sequence: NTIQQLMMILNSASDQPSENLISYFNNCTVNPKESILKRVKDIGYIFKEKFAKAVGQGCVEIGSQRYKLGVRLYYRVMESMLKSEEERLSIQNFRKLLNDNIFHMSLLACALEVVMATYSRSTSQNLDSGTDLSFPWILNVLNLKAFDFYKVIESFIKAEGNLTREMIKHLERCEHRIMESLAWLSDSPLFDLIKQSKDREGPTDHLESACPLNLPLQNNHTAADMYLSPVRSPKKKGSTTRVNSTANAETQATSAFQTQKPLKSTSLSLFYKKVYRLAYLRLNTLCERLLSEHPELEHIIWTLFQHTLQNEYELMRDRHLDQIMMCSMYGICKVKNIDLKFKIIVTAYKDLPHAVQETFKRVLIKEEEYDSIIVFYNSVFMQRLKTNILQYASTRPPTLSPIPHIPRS

Rb^P H555Y = target: T4, Rb^P H555Y (human, UniProt P06400 380-788, H555Y)
T4 sequence: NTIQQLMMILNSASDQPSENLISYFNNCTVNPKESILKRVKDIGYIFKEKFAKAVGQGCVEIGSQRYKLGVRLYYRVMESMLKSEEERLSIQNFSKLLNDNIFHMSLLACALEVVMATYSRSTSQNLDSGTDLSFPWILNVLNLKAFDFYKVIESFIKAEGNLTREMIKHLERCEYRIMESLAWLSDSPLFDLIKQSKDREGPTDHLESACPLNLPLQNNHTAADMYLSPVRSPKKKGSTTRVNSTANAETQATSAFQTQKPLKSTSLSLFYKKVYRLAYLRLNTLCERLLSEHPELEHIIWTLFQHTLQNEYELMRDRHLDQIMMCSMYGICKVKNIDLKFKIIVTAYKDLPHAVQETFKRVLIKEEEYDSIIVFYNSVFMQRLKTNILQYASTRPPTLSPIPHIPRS

Rb^P I703F = target: T5, Rb^P I703F (human, UniProt P06400 380-788, I703F)
T5 sequence: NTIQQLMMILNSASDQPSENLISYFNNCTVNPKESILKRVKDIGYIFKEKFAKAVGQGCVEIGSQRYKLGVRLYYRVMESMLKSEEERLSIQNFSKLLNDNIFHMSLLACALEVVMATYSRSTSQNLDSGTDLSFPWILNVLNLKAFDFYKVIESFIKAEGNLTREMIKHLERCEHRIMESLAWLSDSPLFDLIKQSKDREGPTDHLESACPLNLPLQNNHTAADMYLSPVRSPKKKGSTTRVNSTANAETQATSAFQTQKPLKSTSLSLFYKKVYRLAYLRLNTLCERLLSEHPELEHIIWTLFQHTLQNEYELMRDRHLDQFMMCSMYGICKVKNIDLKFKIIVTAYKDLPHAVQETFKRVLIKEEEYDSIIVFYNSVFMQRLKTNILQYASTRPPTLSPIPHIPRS

Binder: DLYCYEQLN (not fully specified; TMR fluorescent label (TMR-E7^LxCxE)) [TMR-E7^LxCxE (LxCxE peptide of the E7 oncoprotein from HPV, TMR-labeled)]
- binding result (Rb^P S474I): binds
- binding result (Rb^P E492Q): binds
- binding result (Rb^P S474R): binds
- binding result (Rb^P H555Y): binds
- Kd (Rb^P I703F): 16 nM

From publication doi:10.1101/2024.09.22.614354 (bioRxiv, 2024)
